# Reference: IntAct's records for PubMed 35512704
# B1: Mothers against decapentaplegic homolog 4 (Homo sapiens), Q13485 (parent)
# chain: MDNMSITNTPTSNDACLSIVHSLMCHRQGGESETFAKRAIESLVKKLKEKKDELDSLITAITTNGAHPSKCVTIQRTLDGRLQVAGRKGFPHVIYARLWRWPDLHKNELKHVKYCQYAFDLKCDSVCVNPYHYERVVSPGIDLSGLTLQSNAPSSMMVKDEYVHDFEGQPSLSTEGHSIQTIQHPPSNRASTETYSTPALLAPSESNATSTANFPNIPVASTSQPASILGGSHSEGLLQIASGPQPGQQQNGFTGQPATYHHNSTTTWTGSRTAPYTPNLPHHQNGHLQHHPPMPPHPGHYWPVHNELAFQPPISNHPAPEYWCSIAYFEMDVQVGETFKVPSSCPIVTVDGYVDPSGGDRFCLGQLSNVHRTEAIERARLHIGKGVQLECKGEGDVWVRCLSDHAVFVQSYYLDREAGRAPGDAVHKIYPSAYIKVFDLRQCHRQMQQQAATAQAAAAAQAAAVAGNIPGPGSVGGIAPAISLSAAAGIGVDDLRRLCILRMSFVKGWGPDYPRQSIKETPCWIEIHLHRALQLLDEVLHTMPIADPQPLD
# partner: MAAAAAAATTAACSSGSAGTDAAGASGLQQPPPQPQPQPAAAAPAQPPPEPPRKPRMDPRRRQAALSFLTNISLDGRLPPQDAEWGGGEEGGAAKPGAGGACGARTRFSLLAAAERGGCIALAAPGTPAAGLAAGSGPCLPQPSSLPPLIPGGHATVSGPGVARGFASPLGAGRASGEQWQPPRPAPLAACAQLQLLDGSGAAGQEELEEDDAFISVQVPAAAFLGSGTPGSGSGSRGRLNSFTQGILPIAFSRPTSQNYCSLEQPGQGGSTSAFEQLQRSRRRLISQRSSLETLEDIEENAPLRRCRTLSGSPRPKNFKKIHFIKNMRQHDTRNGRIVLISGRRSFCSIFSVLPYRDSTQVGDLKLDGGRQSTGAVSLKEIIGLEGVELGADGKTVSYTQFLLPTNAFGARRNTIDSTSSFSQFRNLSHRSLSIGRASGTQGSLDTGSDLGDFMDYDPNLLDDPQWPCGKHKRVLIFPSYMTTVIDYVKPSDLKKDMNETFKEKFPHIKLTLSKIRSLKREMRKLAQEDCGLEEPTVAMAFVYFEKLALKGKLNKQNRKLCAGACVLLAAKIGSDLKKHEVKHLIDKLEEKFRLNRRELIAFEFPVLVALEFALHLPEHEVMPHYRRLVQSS
# B2: Mothers against decapentaplegic homolog 4 (Homo sapiens), Q13485 (parent)
# chain: B1 chain
# partner: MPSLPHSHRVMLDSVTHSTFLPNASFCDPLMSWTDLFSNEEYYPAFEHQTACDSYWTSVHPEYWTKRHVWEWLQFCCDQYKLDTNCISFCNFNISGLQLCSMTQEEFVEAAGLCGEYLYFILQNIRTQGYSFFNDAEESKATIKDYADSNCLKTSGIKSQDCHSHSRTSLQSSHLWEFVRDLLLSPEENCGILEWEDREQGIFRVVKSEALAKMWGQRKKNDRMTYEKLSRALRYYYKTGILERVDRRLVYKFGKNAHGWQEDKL
# B3: Mothers against decapentaplegic homolog 4 (Homo sapiens), Q13485 (parent)
# chain: B1 chain
# partner: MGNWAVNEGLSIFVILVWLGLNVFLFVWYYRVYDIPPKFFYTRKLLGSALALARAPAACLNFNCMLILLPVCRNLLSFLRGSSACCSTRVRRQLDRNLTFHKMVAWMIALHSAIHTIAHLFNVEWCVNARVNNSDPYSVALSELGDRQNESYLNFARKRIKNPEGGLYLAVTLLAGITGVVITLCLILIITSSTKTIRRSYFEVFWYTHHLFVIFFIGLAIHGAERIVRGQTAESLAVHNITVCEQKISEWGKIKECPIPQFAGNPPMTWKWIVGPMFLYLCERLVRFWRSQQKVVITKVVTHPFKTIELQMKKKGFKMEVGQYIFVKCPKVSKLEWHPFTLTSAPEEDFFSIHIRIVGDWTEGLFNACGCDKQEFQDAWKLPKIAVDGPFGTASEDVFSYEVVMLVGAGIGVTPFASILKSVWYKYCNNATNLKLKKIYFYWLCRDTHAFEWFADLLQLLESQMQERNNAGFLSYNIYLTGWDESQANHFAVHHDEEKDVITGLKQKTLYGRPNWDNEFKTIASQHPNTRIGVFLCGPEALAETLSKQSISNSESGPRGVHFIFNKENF
# B4: Speckle-type POZ protein (Homo sapiens), O43791 (parent)
# chain: MSRVPSPPPPAEMSSGPVAESWCYTQIKVVKFSYMWTINNFSFCREEMGEVIKSSTFSSGANDKLKWCLRVNPKGLDEESKDYLSLYLLLVSCPKSEVRAKFKFSILNAKGEETKAMESQRAYRFVQGKDWGFKKFIRRDFLLDEANGLLPDDKLTLFCEVSVVQDSVNISGQNTMNMVKVPECRLADELGGLWENSRFTDCCLCVAGQEFQAHKAILAARSPVFSAMFEHEMEESKKNRVEINDVEPEVFKEMMCFIYTGKAPNLDKMADDLLAAADKYALERLKVMCEDALCSNLSVENAAEILILADLHSADQLKTQAVDFINYHASDVLETSGWKSMVVSHPHLVAEAYRSLASAQCPFLGPPRKRLKQS
# partner: B1 partner
# B5: Speckle-type POZ protein (Homo sapiens), O43791 (parent)
# chain: B4 chain
# partner: B3 partner
# B6: Mothers against decapentaplegic homolog 4 (Homo sapiens), Q13485 (parent)
# chain: B1 chain
# partner: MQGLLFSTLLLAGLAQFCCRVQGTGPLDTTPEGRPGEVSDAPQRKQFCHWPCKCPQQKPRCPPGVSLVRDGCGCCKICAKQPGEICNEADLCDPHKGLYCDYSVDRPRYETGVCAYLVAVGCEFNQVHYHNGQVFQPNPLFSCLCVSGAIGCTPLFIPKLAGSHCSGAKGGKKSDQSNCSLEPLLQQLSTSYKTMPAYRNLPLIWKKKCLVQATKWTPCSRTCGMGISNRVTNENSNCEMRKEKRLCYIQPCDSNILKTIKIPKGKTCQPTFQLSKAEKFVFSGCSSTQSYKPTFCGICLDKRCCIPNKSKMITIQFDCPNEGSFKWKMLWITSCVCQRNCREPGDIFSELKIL
# B7: Mothers against decapentaplegic homolog 4 (Homo sapiens), Q13485 (parent)
# chain: B1 chain
# partner: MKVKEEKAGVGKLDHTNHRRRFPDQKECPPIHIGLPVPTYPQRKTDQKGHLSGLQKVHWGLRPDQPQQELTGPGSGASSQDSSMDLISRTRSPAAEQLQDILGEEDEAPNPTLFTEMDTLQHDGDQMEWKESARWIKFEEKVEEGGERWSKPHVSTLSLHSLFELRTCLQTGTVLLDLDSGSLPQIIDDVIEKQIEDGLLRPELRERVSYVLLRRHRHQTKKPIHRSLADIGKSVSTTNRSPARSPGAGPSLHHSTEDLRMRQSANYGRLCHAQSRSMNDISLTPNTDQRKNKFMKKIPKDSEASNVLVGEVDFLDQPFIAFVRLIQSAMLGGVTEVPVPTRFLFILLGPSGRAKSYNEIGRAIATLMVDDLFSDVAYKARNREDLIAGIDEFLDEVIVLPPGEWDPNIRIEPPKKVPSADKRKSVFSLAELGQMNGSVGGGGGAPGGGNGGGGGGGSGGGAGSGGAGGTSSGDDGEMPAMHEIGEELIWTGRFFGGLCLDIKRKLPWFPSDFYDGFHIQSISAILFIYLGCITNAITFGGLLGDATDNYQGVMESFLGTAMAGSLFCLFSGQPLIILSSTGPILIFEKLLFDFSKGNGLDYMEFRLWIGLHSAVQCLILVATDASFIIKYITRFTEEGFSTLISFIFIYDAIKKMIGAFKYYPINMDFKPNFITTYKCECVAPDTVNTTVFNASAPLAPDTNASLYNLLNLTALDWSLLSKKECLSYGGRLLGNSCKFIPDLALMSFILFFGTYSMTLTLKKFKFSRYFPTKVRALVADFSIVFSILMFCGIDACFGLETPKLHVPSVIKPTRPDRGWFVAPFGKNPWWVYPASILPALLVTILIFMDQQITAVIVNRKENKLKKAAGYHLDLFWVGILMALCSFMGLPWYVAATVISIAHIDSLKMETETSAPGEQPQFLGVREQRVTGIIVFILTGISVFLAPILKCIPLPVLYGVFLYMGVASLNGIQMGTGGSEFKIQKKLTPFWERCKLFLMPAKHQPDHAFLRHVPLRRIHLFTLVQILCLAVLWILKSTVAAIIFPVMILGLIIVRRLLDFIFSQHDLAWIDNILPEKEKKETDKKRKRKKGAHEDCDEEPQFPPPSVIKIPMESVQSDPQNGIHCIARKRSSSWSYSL
# B8: Speckle-type POZ protein (Homo sapiens), O43791 (parent)
# chain: B4 chain
# partner: B2 partner
# Variants of: B1
# Conditions: with cabl1_human CABLES1, Q8TDN4
row,effect of a mutation on the interaction,Variant
1,with no effect,G386D

# Variants of: B2
# Conditions: with elf5_human ELF5, Q9UKW6
row,effect of a mutation on the interaction,Variant
1,with no effect,R361C

# Variants of: B2
# Conditions: with elf5_human ELF5, Q9UKW6
# Remark: another data set of the same source
row,effect of a mutation on the interaction,Variant
1,with no effect,R361H

# Variants of: B2
# Conditions: with elf5_human ELF5, Q9UKW6
# Remark: another data set of the same source
row,effect of a mutation on the interaction,Variant
1,with no effect,G386D

# Variants of: B3
# Conditions: with cy24b_human CYBB
row,effect of a mutation on the interaction,Variant
1,with no effect,R361H

# Variants of: B4
# Conditions: with cabl1_human CABLES1, Q8TDN4
row,effect of a mutation on the interaction,Variant
1,with no effect,F102C

# Variants of: B4
# Conditions: with cabl1_human CABLES1, Q8TDN4
# Remark: another data set of the same source
row,effect of a mutation on the interaction,Variant
1,with no effect,Y87C

# Variants of: B4
# Conditions: with cabl1_human CABLES1, Q8TDN4
# Remark: another data set of the same source
row,effect of a mutation on the interaction,Variant
1,with no effect,F133V

# Variants of: B4
# Conditions: with cabl1_human CABLES1, Q8TDN4
# Remark: another data set of the same source
row,effect of a mutation on the interaction,Variant
1,with no effect,F133L

# Variants of: B5
# Conditions: with cy24b_human CYBB
row,effect of a mutation on the interaction,Variant
1,with no effect,Y87C

# Variants of: B5
# Conditions: with cy24b_human CYBB
# Remark: another data set of the same source
row,effect of a mutation on the interaction,Variant
1,with no effect,F102C

# Variants of: B5
# Conditions: with cy24b_human CYBB
# Remark: another data set of the same source
row,effect of a mutation on the interaction,Variant
1,with no effect,F133L

# Variants of: B5
# Conditions: with cy24b_human CYBB
# Remark: another data set of the same source
row,effect of a mutation on the interaction,Variant
1,with no effect,F133V

# Variants of: B6
# Conditions: with ccn6_human CCN6, O95389
row,effect of a mutation on the interaction,Variant
1,with no effect,D351H

# Variants of: B6
# Conditions: with ccn6_human CCN6, O95389
# Remark: another data set of the same source
row,effect of a mutation on the interaction,Variant
1,with no effect,R361H

# Variants of: B6
# Conditions: with ccn6_human CCN6, O95389
# Remark: another data set of the same source
row,effect of a mutation on the interaction,Variant
1,with no effect,R361C

# Variants of: B6
# Conditions: with ccn6_human CCN6, O95389
# Remark: another data set of the same source
row,effect of a mutation on the interaction,Variant
1,with no effect,G386D

# Variants of: B7
# Conditions: with s4a5_human SLC4A5, Q9BY07
row,effect of a mutation on the interaction,Variant
1,with no effect,G386D

# Variants of: B7
# Conditions: with s4a5_human SLC4A5, Q9BY07
# Remark: another data set of the same source
row,effect of a mutation on the interaction,Variant
1,with no effect,R361C

# Variants of: B8
# Conditions: with elf5_human ELF5, Q9UKW6
row,effect of a mutation on the interaction,Variant
1,with no effect,F133L

# Variants of: B8
# Conditions: with elf5_human ELF5, Q9UKW6
# Remark: another data set of the same source
row,effect of a mutation on the interaction,Variant
1,with no effect,F133V

# Variants of: B8
# Conditions: with elf5_human ELF5, Q9UKW6
# Remark: another data set of the same source
row,effect of a mutation on the interaction,Variant
1,with no effect,Y87C

# Variants of: B8
# Conditions: with elf5_human ELF5, Q9UKW6
# Remark: another data set of the same source
row,effect of a mutation on the interaction,Variant
1,with no effect,F102C
